Paper PMC4650570 (Cell Research, 2014)

B1: CSPG4-N(401-560)-Fc (Fc fusion)
chain: LAPEAWPAMELPEPCVPEPGLPPVFANFTQLLTISPLVVAEGGTAWLEWRHVQPTLDLMEAELRKSQVLFSVTRGARHGELELDIPGAQARKMFTLLDVVNRKARFIHDGSEDTSDQLVLEVSVTARVPMPSCLRRGQTYLLPIQVNPVNDPPHIIFPHG
B2: CSPG4-N(30-640)-Fc (Fc fusion)
chain: ASFFGENHLEVPVATALTDIDLQLQFSTSQPEALLLLAAGPADHLLLQLYSGRLQVRLVLGQEELRLQTPAETLLSDSIPHTVVLTVVEGWATLSVDGFLNASSAVPGAPLEVPYGLFVGGTGTLGLPYLRGTSRPLRGCLHAATLNGRSLLRPLTPDVHEGCAEEFSASDDVALGFSGPHSLAAFPAWGTQDEGTLEFTLTTQSRQAPLAFQAGGRRGDFIYVDIFEGHLRAVVEKGQGTVLLHNSVPVADGQPHEVSVHINAHRLEISVDQYPTHTSNRGVLSYLEPRGSLLLGGLDAEASRHLQEHRLGLTPEATNASLLGCMEDLSVNGQRRGLREALLTRNMAAGCRLEEEEYEDDAYGHYEAFSTLAPEAWPAMELPEPCVPEPGLPPVFANFTQLLTISPLVVAEGGTAWLEWRHVQPTLDLMEAELRKSQVLFSVTRGARHGELELDIPGAQARKMFTLLDVVNRKARFIHDGSEDTSDQLVLEVSVTARVPMPSCLRRGQTYLLPIQVNPVNDPPHIIFPHGSLMVILEHTQKPLGPEVFQAYDPDSACEGLTFQVLGTSSGLPVERRDQPGEPATEFSCRELEAGSLVYVHRGGPAQDLTF

Assays:
[1] = molecular target: Clostridium difficile toxin B, His-tagged (TcdB-His) (Clostridium difficile, UniProt P18177 1-2366); assay: SPR
Chain of Clostridium difficile toxin B, His-tagged (TcdB-His) (P18177 whole entry): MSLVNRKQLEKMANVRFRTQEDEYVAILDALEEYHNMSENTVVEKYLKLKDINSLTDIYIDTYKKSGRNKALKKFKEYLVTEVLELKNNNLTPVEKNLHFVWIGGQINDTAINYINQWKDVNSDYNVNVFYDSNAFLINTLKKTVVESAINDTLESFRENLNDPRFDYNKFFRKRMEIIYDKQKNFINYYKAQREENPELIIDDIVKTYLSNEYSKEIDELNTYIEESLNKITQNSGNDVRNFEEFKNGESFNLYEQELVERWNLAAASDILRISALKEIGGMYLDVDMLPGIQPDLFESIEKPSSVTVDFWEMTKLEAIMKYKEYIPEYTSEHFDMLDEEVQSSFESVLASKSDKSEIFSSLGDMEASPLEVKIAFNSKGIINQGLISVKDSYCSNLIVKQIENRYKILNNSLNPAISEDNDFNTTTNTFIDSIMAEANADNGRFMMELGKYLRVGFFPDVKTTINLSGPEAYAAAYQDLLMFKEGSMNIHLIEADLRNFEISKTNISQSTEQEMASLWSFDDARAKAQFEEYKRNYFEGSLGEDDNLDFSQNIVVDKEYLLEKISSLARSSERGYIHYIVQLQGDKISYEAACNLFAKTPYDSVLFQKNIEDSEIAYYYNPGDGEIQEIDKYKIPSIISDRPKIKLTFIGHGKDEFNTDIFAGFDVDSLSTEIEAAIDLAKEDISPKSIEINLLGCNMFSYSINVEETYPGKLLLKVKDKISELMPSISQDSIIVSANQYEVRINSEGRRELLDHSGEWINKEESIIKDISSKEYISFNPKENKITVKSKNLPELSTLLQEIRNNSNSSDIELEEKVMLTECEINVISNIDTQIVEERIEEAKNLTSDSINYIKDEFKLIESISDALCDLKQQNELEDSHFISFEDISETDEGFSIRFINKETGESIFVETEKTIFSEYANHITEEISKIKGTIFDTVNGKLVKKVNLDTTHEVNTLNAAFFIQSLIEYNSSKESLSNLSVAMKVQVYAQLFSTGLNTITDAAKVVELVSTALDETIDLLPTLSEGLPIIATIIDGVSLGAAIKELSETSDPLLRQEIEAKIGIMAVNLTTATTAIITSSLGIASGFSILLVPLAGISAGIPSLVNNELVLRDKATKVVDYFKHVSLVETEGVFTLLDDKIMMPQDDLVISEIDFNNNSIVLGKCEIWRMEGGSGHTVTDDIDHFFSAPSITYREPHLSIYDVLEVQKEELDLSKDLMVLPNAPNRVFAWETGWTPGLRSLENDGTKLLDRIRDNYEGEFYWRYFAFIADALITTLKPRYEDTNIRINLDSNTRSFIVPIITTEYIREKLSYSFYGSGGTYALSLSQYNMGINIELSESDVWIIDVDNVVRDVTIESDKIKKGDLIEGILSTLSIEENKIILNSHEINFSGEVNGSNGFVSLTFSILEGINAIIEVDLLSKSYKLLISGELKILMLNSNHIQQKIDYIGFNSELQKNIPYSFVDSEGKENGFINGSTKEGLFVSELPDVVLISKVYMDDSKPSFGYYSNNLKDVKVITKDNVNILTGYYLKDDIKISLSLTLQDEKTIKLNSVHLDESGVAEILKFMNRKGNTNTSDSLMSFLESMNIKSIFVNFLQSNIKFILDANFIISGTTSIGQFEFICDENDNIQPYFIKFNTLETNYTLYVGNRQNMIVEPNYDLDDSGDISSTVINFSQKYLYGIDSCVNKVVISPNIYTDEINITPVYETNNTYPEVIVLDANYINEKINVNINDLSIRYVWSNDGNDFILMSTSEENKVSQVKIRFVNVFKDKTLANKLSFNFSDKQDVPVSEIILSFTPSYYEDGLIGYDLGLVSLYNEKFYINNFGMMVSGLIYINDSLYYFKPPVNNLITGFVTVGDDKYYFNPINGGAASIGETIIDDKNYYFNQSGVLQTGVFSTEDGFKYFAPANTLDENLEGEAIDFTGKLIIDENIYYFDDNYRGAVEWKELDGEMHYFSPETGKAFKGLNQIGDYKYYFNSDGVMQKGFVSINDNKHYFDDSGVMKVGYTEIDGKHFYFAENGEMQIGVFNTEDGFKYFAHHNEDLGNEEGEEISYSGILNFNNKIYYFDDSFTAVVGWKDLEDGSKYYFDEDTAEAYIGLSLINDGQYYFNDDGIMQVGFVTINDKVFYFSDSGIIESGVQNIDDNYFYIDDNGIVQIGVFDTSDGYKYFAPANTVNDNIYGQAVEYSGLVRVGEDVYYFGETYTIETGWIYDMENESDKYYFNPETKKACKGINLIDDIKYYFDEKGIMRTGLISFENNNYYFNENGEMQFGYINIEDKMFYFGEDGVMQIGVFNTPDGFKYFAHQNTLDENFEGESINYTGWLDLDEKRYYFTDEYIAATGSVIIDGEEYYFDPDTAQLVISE

GST-TcdB-C(1500-2366) = GST-TcdB-C(1500-2366) (Clostridium difficile, UniProt P18177 1500-2366); assay: pull-down
Chain of GST-TcdB-C(1500-2366) (P18177 1500-2366): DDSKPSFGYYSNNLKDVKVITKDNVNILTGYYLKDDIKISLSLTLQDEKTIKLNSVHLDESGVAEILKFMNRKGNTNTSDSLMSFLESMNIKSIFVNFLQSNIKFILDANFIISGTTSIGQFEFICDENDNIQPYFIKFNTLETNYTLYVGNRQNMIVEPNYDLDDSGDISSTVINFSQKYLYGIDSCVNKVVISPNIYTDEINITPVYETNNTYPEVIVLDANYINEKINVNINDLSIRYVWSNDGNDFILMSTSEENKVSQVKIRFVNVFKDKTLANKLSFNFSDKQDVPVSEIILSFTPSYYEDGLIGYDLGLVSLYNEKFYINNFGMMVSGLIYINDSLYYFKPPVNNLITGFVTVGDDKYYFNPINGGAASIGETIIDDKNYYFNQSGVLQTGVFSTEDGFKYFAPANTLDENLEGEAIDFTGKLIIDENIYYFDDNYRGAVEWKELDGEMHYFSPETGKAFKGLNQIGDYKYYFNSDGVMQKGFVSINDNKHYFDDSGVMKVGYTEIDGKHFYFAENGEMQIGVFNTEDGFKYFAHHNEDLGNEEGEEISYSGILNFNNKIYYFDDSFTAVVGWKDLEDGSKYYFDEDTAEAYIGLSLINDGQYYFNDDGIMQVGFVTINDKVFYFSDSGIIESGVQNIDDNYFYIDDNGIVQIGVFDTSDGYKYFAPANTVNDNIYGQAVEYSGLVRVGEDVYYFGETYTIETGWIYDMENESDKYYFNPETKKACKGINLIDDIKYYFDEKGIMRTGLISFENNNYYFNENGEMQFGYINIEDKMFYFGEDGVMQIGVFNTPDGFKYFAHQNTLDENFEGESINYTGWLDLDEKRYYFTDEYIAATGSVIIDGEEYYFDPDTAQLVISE

Binder | Kd [1] | binding result (GST-TcdB-C(1500-2366))
B1 | 0.0289 ± 0.0007 µM | 
B2 |  | binds
